Tested on: F1*sub RNA substrate (template-directed ligation)
Assay: fraction ligated after 30 min (ligated reads / total reads); higher = more ligase activity; sequences stand for … in GAGACCGCAACTGAAAAGTTGT…AGTTCTGCACGTAGAAGCAAAAGGC
Settings: 42 °C
Summary of the method: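 The ligase ribozyme variants were produced by PCR amplification of oligo-pool templates, T7 transcription and purification on gel. Their ligated and unligated forms were gel-separated, then reverse transcribed with barcoded primers before MiSeq sequencing. Core bases were filtered at a quality of ≥20, and fraction ligated per variant was ligated reads over total reads.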

## TATCACTGTCGTAAGACACTTGGATGGGTTG [3d1446]
  fraction ligated: 0.807

## TATCACTTGTCGAGACACTTGGATGGGTTGA [3d1908]
  fraction ligated: 0.793

## TATCACTTGTGAGACACTTTGGATGGGTTGA [3d1718]
  fraction ligated: 0.841

## TATCACTTGTCTAAGAACTTTGGATGGTTGA [3d1861]
  fraction ligated: 0.166

## ATCACTTGTCGAAGACACTTTGGAGGGTTGA [3d194]
  fraction ligated: 0.128

## TATCACTTGTCGTAAACCTTTGGATGGGTTG [3d2073]
  fraction ligated: 0.793

## TATCATGTCGTAAGACACTTTGGAGGGTTGA [3d1136]
  fraction ligated: 0.0722

## ATCACTTGTCGTAGACATTTGGATGGGTTGA [3d203]
  fraction ligated: 0.731

## TATCACTTGTCGTAAGACACTTTGATGGTTG [3d2268]
  fraction ligated: 0.0103

## TATCACTTGCGTAAACATTTGGATGGGTTGA [3d1641]
  fraction ligated: 0.822

## TATACTTGTCGTAAGACATTTGGTGGGTTGA [3d920]
  fraction ligated: 0.0527

## TATCACTGTCGTAAGACCTTTGGATGGGTTA [3d1431]
  fraction ligated: 0.808

## TTCATTGTCGTAAGACCTTTGGATGGGTTGA [3d327]
  fraction ligated: 0.529

## TATCACTTGTGTAAGACACTGGATGGGTTGA [3d1786]
  fraction ligated: 0.792

## TATATTGTCGTAAGACACTTTGGTGGGTTGA [3d772]
  fraction ligated: 0.0169

## ATCACTTGTCGTAACACTTTGGATGGGTTGA [3d199]
  fraction ligated: 0.779

## TATCACTTTCGAAGACATTTGGATGGGTTGA [3d1498]
  fraction ligated: 0.769

## TATCCTTGTCGTAAACACTTTGATGGGTTGA [3d1059]
  fraction ligated: 0.758

## ATCACTGTCGTAAGACATTTGGATGGGTTGA [3d116]
  fraction ligated: 0.719

## TATCACTTGCGTAAGACATTTGGATGGGTTA [3d1679]
  fraction ligated: 0.808

## TATCACGTCGTAAGACACTTTGGATGGTTGA [3d1308]
  fraction ligated: 0.361

## TATCACTTGTCGTAAGAATTTGGATGGGTTA [3d2157]
  fraction ligated: 0.765

## ACACTGTCGTAAGACACTTTGGATGGGTTGA [3d27]
  fraction ligated: 0.238

## TATCATTGTCGTAAGACATTGGATGGGTTGA [3d1262]
  fraction ligated: 0.801

## TATCACTGTGTAAGACACTTTGGAGGGTTGA [3d1354]
  fraction ligated: 0.0274

## TATCACTTTCGTAAACACTTTGATGGGTTGA [3d1523]
  fraction ligated: 0.768

## TATACTGTCGTAGACACTTTGGATGGGTTGA [3d783]
  fraction ligated: 0.757

## TATCACTTGTCGTAAACACTTGGAGGGTTGA [3d2084]
  fraction ligated: 0.0636

## ATACTTGTCGTAAGACACTTTGGATGGGTTA [3d65]
  fraction ligated: 0.0347

## TATCACTTGTCGTAAGACATTGGATGGGTTA [3d2212]
  fraction ligated: 0.78

## TATCACTTTCGTAAGACATTTGGATGGTTGA [3d1558]
  fraction ligated: 0.286

## TATCCTTGTCGTGACACTTTGGATGGGTTGA [3d1042]
  fraction ligated: 0.798

## TATCACTTGTCGTAGACATTTGATGGGTTGA [3d2029]
  fraction ligated: 0.309

## ATCACTTGTCGTAAGACACTTTGGAGGGTTG [3d272]
  fraction ligated: 0.094

## TATCCTTTCGTAAGAACTTTGGATGGGTTGA [3d974]
  fraction ligated: 0.797

## TATCACTTGTCGTGACACTTTGGATGGTTGA [3d1990]
  fraction ligated: 0.0934

## TATCACGTCGTAAGACACTTTGGAGGGTTGA [3d1307]
  fraction ligated: 0.104

## TTCATTGTCGTAAGACACTTGGATGGGTTGA [3d329]
  fraction ligated: 0.453

## TATCCTTGTCGAGACACTTTGGATGGGTTGA [3d1029]
  fraction ligated: 0.793

## TTCACTTGTCTAAGACACTTGGATGGGTTGA [3d409]
  fraction ligated: 0.435

## TATCATTGTCGTGACACTTTGGATGGGTTGA [3d1214]
  fraction ligated: 0.792

## TTACTTGTGTAAGACACTTTGGATGGGTTGA [3d282]
  fraction ligated: 0.207

## ATCACTTGTCGTAAGACACTTGGATGGGTTGA [2d18]
  fraction ligated: 0.761

## TATCACTTGTCTAGACACTTTGGAGGGTTGA [3d1832]
  fraction ligated: 0.218

## TATCACTTGTGTAAGAACTTTGATGGGTTGA [3d1766]
  fraction ligated: 0.834

## TATCATTGTCGTAAGACATTTGATGGGTTGA [3d1263]
  fraction ligated: 0.787

## TATCACTGTCTAAGCACTTTGGATGGGTTGA [3d1361]
  fraction ligated: 0.771

## TATCCTTGTCGTAAGACACTTTGGATGGGTTA [2d107]
  fraction ligated: 0.401

## TATCACTTGTCGTAAACACTTTGGAGGTTGA [3d2098]
  fraction ligated: 0.0433

## TATCCTTGTCGTAAGACCTTTGGATGGTTGA [3d1087]
  fraction ligated: 0.0339

## TATCACTTGTCGTGACATTTGGATGGGTTGA [3d1985]
  fraction ligated: 0.809

## TATCACTTGTCGTAAGACATTTGGATGGGTTG [2d275]
  fraction ligated: 0.828

## TACACTTGTCTAAGACACTTTGGATGGGTTGA [2d54]
  fraction ligated: 0.609

## TATCACTTGTCGTAGACCTTGGATGGGTTGA [3d2021]
  fraction ligated: 0.79

## TACACTTGTCGTGACACTTTGGATGGGTTGA [3d659]
  fraction ligated: 0.0318

## TATCACTTGTCGAAGCACTTTGGATGGTTGA [3d1932]
  fraction ligated: 0.159

## TATCACTTTCGTAAGCCTTTGGATGGGTTGA [3d1530]
  fraction ligated: 0.774

## TATCACTTGTGTAGACATTTGGATGGGTTGA [3d1736]
  fraction ligated: 0.883

## TATCACTTGTCGTAAGACACTTTGGAGGTTGA [2d293]
  fraction ligated: 0.0113

## TTCACTTGCGTAAGAACTTTGGATGGGTTGA [3d377]
  fraction ligated: 0.52

## TATCATTGTGTAAGACACTTTGGATGGGTTGA [2d112]
  fraction ligated: 0.824

## TATCCTTGTCGTAAGCCTTTGGATGGGTTGA [3d1066]
  fraction ligated: 0.75

## TTCACTTGTCTAAGACACTTTGGATGGGTTGA [2d32]
  fraction ligated: 0.768

## TATCACTTTCGTAAACACTTGGATGGGTTGA [3d1522]
  fraction ligated: 0.778

## TATCACTTTCGTAAGACACTTTGGATGGGTT [3d1583]
  fraction ligated: 0.22

## TATCACTGTCTAAGACACTTTGGATGGGTTG [3d1371]
  fraction ligated: 0.8

## ATCACTTGTCGAAGACCTTTGGATGGGTTGA [3d189]
  fraction ligated: 0.75

## TACACTTGTCGTAGACACTTTGGATGGGTTG [3d671]
  fraction ligated: 0.514

## TCACTTGTCGTAAGACACTTTGGATGGGTTGA [2d1]
  fraction ligated: 0.796

## TATCACTTGTCTAAGACACTTTGATGGGTTA [3d1889]
  fraction ligated: 0.162

## TATCCTTTCGTAAGACACTTGGATGGGTTGA [3d977]
  fraction ligated: 0.76

## TATCACTTGTCGTAGACACTTGGATGGGTTG [3d2041]
  fraction ligated: 0.782

## TATCACTTGTCGTAGACCTTTGATGGGTTGA [3d2022]
  fraction ligated: 0.759

## TCACTTGTCGTAAGACACTTGGATGGGTTGA [3d17]
  fraction ligated: 0.419

## TATCATTGTCGTAAGACCTTTGGATGGTTGA [3d1259]
  fraction ligated: 0.493

## TATCACTTGCGTAAGACACTTGGTGGGTTGA [3d1683]
  fraction ligated: 0.139

## TATCACTGTCGTAAGACACTTTGGATGGGTTA [2d145]
  fraction ligated: 0.773

## TATACTTGTCTAAGAACTTTGGATGGGTTGA [3d847]
  fraction ligated: 0.765

## TATACTTGTGTAAGACACTTTGGAGGGTTGA [3d839]
  fraction ligated: 0.0723

## TATCATTGTCGTAAGACACTTTGGATGGTTG [3d1290]
  fraction ligated: 0.299

## TATCTTGTCTAAGACACTTTGGATGGGTTGA [3d743]
  fraction ligated: 0.742

## TATCACTTGTCGTAAGAACTTGGATGGGTTG [3d2165]
  fraction ligated: 0.777

## TATACTTGTCGAAGACACTTGGATGGGTTGA [3d863]
  fraction ligated: 0.743

## TACATTGTCGTAAGACACTTTGGAGGGTTGA [3d562]
  fraction ligated: 0.16

## ATCACTTGTCTAAGACACTTTGGATGGGTTG [3d184]
  fraction ligated: 0.762

## TATCATTGTCGTAAGCATTTGGATGGGTTGA [3d1239]
  fraction ligated: 0.796

## TATCACTTGTCTAAGCACTTTGGAGGGTTGA [3d1852]
  fraction ligated: 0.128

## TATCACTTGGAAGACACTTTGGATGGGTTGA [3d1585]
  fraction ligated: 0.823

## TATCACTTGCGTAAGACACTTTGGATGGTTG [3d1702]
  fraction ligated: 0.208

## TTCCTTGTCGTAAGACCTTTGGATGGGTTGA [3d308]
  fraction ligated: 0.737

## TACACTTGTCGTAAGAACTTTGGATGGGTTG [3d699]
  fraction ligated: 0.00593

## TTCACTTTCGTAAGACACTTTGGATGGGTTA [3d369]
  fraction ligated: 0.0133

## TACACTTGTCGTAAGACACTTTGGTGGGTTG [3d730]
  fraction ligated: 0.035

## TATCACTTGTCTAAGCACTTTGGTGGGTTGA [3d1851]
  fraction ligated: 0.108

## TATCATTGTCGTAAGACACTTTGATGGTTGA [3d1279]
  fraction ligated: 0.027

## TATCACTTGTGAAGACATTTGGATGGGTTGA [3d1723]
  fraction ligated: 0.855

## TTCACTGTCGTAGACACTTTGGATGGGTTGA [3d342]
  fraction ligated: 0.775

## TATCACTTGTCGAAGACACTTTGGGGGTTGA [3d1970]
  fraction ligated: 0.133

## TATATTGTCGTAAGACACTTTGGATGGGTTA [3d775]
  fraction ligated: 0.0168

## TATACTTGCGTAAGACACTTGGATGGGTTGA [3d821]
  fraction ligated: 0.485

## TATCCTTGTCGTAAGACACTTTGATGGTTGA [3d1107]
  fraction ligated: 0.054

## TACACTTGTCGTAAGACACTTGGATGGTTGA [3d718]
  fraction ligated: 0.0649

## ATCACTGCGTAAGACACTTTGGATGGGTTGA [3d107]
  fraction ligated: 0.818

## TTCACTTGTCGTAAACACTTTGATGGGTTGA [3d446]
  fraction ligated: 0.0177

## TATCACTTGTCGAAGACACTTTGGAGGGTTA [3d1975]
  fraction ligated: 0.136

## TTCACTTGTCGTAAGACACTTTGAGGGTTGA [3d493]
  fraction ligated: 0.0469

## TATCACTTGTCGTAAGATTTGGATGGGTTGA [3d2106]
  fraction ligated: 0.815

## ATCCTTGTCGTAAACACTTTGGATGGGTTGA [3d74]
  fraction ligated: 0.789

## ATCACTTTCGTAAGAACTTTGGATGGGTTGA [3d130]
  fraction ligated: 0.849

## TATCCTGTCGTAAGAACTTTGGATGGGTTGA [3d958]
  fraction ligated: 0.803

## TATACTTGCGTAAGAACTTTGGATGGGTTGA [3d818]
  fraction ligated: 0.768

## TACACTGTCGTAAGACACTTGGATGGGTTGA [3d578]
  fraction ligated: 0.394

Reference: the supplement of paper PMC6755084
